# Results: patent publication US20080081025A1, “Uv Absorbing Chromophores Covalently Bonded to Hyperbranched Polymers” (DSM IP ASSETS B.V., priority 2004, published 2008)
# Experiments:
# [1] = In vitro SPF on PMMA plates using the SPF-290S Analyzer System; conditions: sunscreen containing 5% UV filter; 1.4 mg sunscreen per cm^2 on PMMA plates; triplicate
# [2] = Solubility in Tegosoft TN (C12-C15 alkylbenzoate); assay type: physicochemical
# Protocol: (§1) Cesium carbonate (16 g, 50 mmol) and potassium iodate (50 mg) were added to a solution of 4-(1,3-benzoxazol-2-yl)-phenol I (8.9 g, 42 mmol) (prepared according to Passerini, J. Chem. Soc. 1954, 2256-2257) in NMP (N-methylpyrolidon) (100 mL) and the mixture stirred under Argon at 80° C. for 20 min. A solution of mesylated poly(glycerol-b-propylene oxide) (7.48 g, 4.4 mmol, 35 mmol MsO) in NMP (60 mL) was added dropwise and the reaction mixture stirred at 80° C. for 12 h. Water and ethyl acetate were added (200 mL each), an orange precipitate was separated by filtration, and the aqueous layer was extracted with ethyl acetate (2×100 mL). […] The amount of attached chromophore was determined using ^1H NMR, comparing the integration of the signals of the phenol's aromatic protons at 6.99 and 8.12 ppm to trimethylolpropane CH3 at 0.87 ppm, to give an average of about 8 chromophores/polymer.
# Hybrane200 D2000 (WO 99/16810) was supplied from DSM Hybrane (Geleen, The Netherlands) with a Mn of about 2000 g/mol as determined by GPC. […] The amount of attached chromophore was determined using ^1H NMR, comparing the integration of the signals of the aromatic protons at 6.59 and 7.85 ppm to the CH3 of the aliphatic chain at 0.86 ppm, to give an average of about 8 chromophores/polymer.
# [3] = UV absorption (specific extinction E1/1) of the polymeric filter; assay type: physicochemical; conditions: in CHCl3 at 309 nm
# Protocol: as §1
# Potassium tert. butylate (2.3 g) were added to a solution of 4-Dicyanomethylene-2,6-dimethyl-1,4-dihydropyridine-N-ethane-2-ol (4.3 g, 20 mmol) in NMP (50 mL) and the mixture stirred under Argon at rt. for 10 min. […] This product was chromatographed in Ethylacetate/Ethanol=19:1 and the fractions were analyzed by GPC. […]
# Hybrane200 D2000 (WO 99/16810) was supplied from DSM Hybrane (Geleen, The Netherlands) with a Mn of about 2000 g/mol as determined by GPC. […]
# [4] = Photostability according to G. Berset et al., applying the prepared sunscreen instead of a liquid film; assay type: physicochemical; conditions: Brij O/W sunscreen containing 5% (w/w) chromophore; Berset method
# Protocol: The photostability of the conjugates according to the present invention may be measured according to G. Berset et al. International Journal of Cosmetic Science 1996, 18(3), 167-177.
# The hyperbranched chromophore II (5.0 g, corresponding to 5% (w/w) UV-filter/sunscreen) was dissolved in Tegosoft TN at 80° C. and added to a mixture of Brij 72 (INCI: Steareth-2) (2.0 g), Brij 721 (INCI: Steareth-21) (2.0 g), Lanette O (cetearyl alcohol) (2.0 g), Estol GMM 3650 (glyceryl monomyristate) (2.0 g), BHT (butylhydroxytoluene) (0.05 g) and Phenonip (phenoxyethanol and methyl-, ethyl-, propyl-, butylparaben) (0.8 g). The mixture was shortly heated to 80° C. in order to melt solid emulsifiers. To the still warm mixture (70-80° C.) a preheated solution (˜80° C.) of glycerin (4.0 g) and EDTA BD (0.1 g) in water (62.95 g) and subsequently 10% aqueous KOH (0.1 g) as well as Sepigel 305 (polyacrylamide and C13-C14 isoparaffin and Laureth-7) (1.0 g) were added slowly under continuous stirring. The resulting emulsion was stirred until a temperature of about 40° C. was reached, homogenized with 24,000 rpm using a ULTRA-TURRAX®, and finally stirred for an additional hour. […] Each in vitro SPF was determined in triplicate to give for chromophore II and Parsol® MCX an average of 6.6 (II) and 6.8, respectively.
smiles,measurement,setting,value
"CCCCC(CC)COC(=O)C=Cc1ccc(OC)cc1 (centres unmarked) [Parsol® MCX, 2-ethylhexyl 4-methoxycinnamate, reference compound]",in vitro SPF (average),[1],6.8
CCC(COCC(COCC(C)Oc1ccc(-c2nc3ccccc3o2)cc1)OCC(C)OCC(C)Oc1ccc(-c2nc3ccccc3o2)cc1)(COCC(COCC(C)OCC(C)Oc1ccc(-c2nc3ccccc3o2)cc1)OCC(C)Oc1ccc(-c2nc3ccccc3o2)cc1)COCC(COCC(COCC(C)Oc1ccc(-c2nc3ccccc3o2)cc1)OCC(C)Oc1ccc(-c2nc3ccccc3o2)cc1)OCC(COCC(C)Oc1ccc(-c2nc3ccccc3o2)cc1)OCC(C)Oc1ccc(-c2nc3ccccc3o2)cc1 (centres unmarked) [chromophore II],solubility in Tegosoft TN,[2],at least 24 % (w/w)
same,E1/1/-value,[3],840
same,photostability: chromophore recovered,[4],96%
same,in vitro SPF (average),[1],6.6
